This is an account of results in publication doi:10.1101/559120.

The assay concerns the target branched-chain amino acid aminotransferase from Pseudomonas sp. (Pseudomonas sp.). Briefly: crystal structure.

As usually defined, the stoichiometry N is a count of units in the complex or per binding partner. As for “branched-chain amino acid aminotransferase from Pseudomonas sp. (enzyme)”, the stoichiometry N turned out to be 2.
